The data set in a line: soluble on expression in E. coli; label from the status in PepcDB or PDB records.
With “MGSDKIHHHHHHMKIEINPVSRIEGHAKVTIFLDSSGKVENAFFQATEFRGYEKILSGLPMEEVPRVVSTICGICRAIHFTAALKAADQVFGVEASDAAKIVREMLLCAHFIEDHTLSLLALALPDFLSPEERNIFGVIRNLGELGRELLRKRGYAVRILQILGGRNIHPVTALPGGWAKAPTDEELGLIERYSRELLDLGYRMVEVLEAALDMGDGLELRAATLGTEKKGLVNLYDGEQVVKDEEGKEVLRFSGKEYADIITEKSLSWSYSKLTEIKPLGEKLYVVGPLARLKTAELTPKASEIVKTYGVSNNLLYNHFARAVEIIYAAERLLELSQSYRGGRIQNEPQKVAGEGVGIVEAPRGTLIHHYWTDEKGIVRGSNLIVATTHNVRAINHVVGKVAERASDTRNLAEKVEVAIRAFDPCMACATHAVNGVIPIEIQIFRDGELEEVYRNYEESCCGSGQSTHS”, the “soluble on expression in E. coli” value is listed as “not soluble”. To “MSSYRGGSRGGGSNYMSNLPFGLGYGDVGKNHITEFPSIPLPINGPITNKERSLAVKYINFGKTVKDGPFYTGSMSLIIDQQENSKSGKRKPNIILDEDDTNDGIERYSDKYLKKRKIGISIDDHPYNLNLFPNELYNVMGINKKKLLAISKFNNADDVFTGTGLQDENIGLSMLAKLKELAEDVDDASTGDGAAKGSKTGEGEDDDLADDDFEEDEDEEDDDDYNAEKYFNNGDDDDYGDEEDPNEEAAF” belongs “not soluble”. The value for “MNRSMKQYDPIDFVVDWVDSNDISWKKKKSLYEENVISSVDDSQARYRDWGIFKYWFRAVEKNAPWVHKIFIITDHQNPKFLNKHSSKIVFVNHEDFIPNEYLPTFNSDAIEIGIQNIPGLSEHFVFFNDDMFINKPVKPIDFFDGNIPKDSGVMGPQFPISNSITHITVNNMEIINKYFLKKKVLRKYFFKFFNWRYGKDNIRTATALPWQVFIGFYDMHIPISFLKSTFDNVWSEVGNLLSQNYQHRFRSQLDYSVWLMRYFQLASGNFFPRRTRFGKYYNLGEQTEEIINDIKTGKHALIVLNDQESINDYPYEKKLVNEVFERRYSRKSEFENLEHHHHHH” was “not soluble”; that for “MTLKNNILPLLMLSCCFVLAACSSSNSASASASNKNKNMEPNKGRYSLKNDKMPLNPPNVDHVPNATPKYEPYSRRGNKPYTVYGESYTVLNSGEGFSETGRASWYGEKFHGYETSNGEPYDMYGMSGAHKTLPLPSYARVTNLDNNKQVIIRINDRGPFHSERILDLSYAAAYKLGMLGTGTARIKLDVIYIGSKAATQSAIASVHSSGNHYIQLVASKDKQRLHKMAKDLEKKYQVKTRVQPANNMFRLQLGPIGQAELADRLLIKVKQDGYPAGYIVSEK” was “not soluble”. For “MNVFNPAQFRAQFPALQDAGVYLDSAATALKPEAVVEATQQFYSLSAGNVHRSQFAEAQRLTARYEAAREKVAQLLNAPDDKTIVWTRGTTESINMVAQCYARPRLQPGDEIIVSVAEHHANLVPWLMVAQQTGAKVVKLPLNAQRLPDVDLLPELITPRSRILALGQMSNVTGGCPDLARAITFAHSAGMVVMVDGAQGAVHFPADVQQLDIDFYAFSGHKLYGPTGIGVLYGKSELLEAMSPWLGGGKMVHEVSFDGFTTQSAPWKLEAGTPNVAGVIGLSAALEWLADYDINQAESWSRSLATLAEDALAKRPGFRSFRCQDSSLLAFDFAGVHHSDMVTLLAEYGIALRAGQHCAQPLLAELGVTGTLRASFAPYNTKSDVDALVNAVDRALELLVD”, the “soluble on expression in E. coli” value is “soluble”. Turning to “MGSDKIHHHHHHMSAAVERSPEEKRVIPVALSSASVYPLSVHDAFAVAQDLGFDGVEVMVTNNATSQSPHSLLELSHRYRQPIVSIHAPTLLLTQKVWGSAWNKIEMSCRMAREVGCGTVVVHPPFRWQNNYAENFPAGIRQLADMYQVRIAVENMYPWRVRGRETVAYLPHWDPLGQDYDDVTWDFSHAATAGANSVEAIKALGGKLRHIHLTDGSGSGRDEHLIPGRGNQGCAEALQHLAGSGFDGVVVAEISTRRAKFAGERELWLNETLKFARQHLSHPLVGAREA”, the “soluble on expression in E. coli” value is listed as “not soluble”.

In the case of “MRRVETDSTGQIEVDNDKYWGAQTQRSIEHFSIGSDLMPIEVIKALAIIKKAAAITNHQLGILARTKKEIIIKVADEIIAGELDEHFPLRVLMTGSGTQSNMNVNEVISNRAIELLGGKKGSKNPIHPNDDVNMSQSSNDTFPSAMYIATALEINNRLLPALEYMQQQLADKAKQWDDIVKIGRTHMQDAVPLTLGQEFSGYAALLENNIQRIKDTLKYVYQLALGGTAVGTGLNAPDGFAEITAKYIATITSLAFVSATNKFEVQGSHDALVAVMGQLKTLANSLFKIANDIRLLSCGPRAGFHELLIPENEPGSSIMPGKVNPTQCEAMAMVAAQVIGYDVAVGIGGSAGYLEMNVYKPLIIFNIIQSIKIISDSCVNFTKYLLEGMKPNHDKIEFYLKNSLMLVTALSPVIGYDKAAKLAHYAEQKNISLAEANQELKFLSKEEFDKVVDPYKMTKGGIL”, the “soluble on expression in E. coli” value was “not soluble”.

Take “MGSDKIHHHHHHMKVKPFSLSIPFNTEPPSDWKDAWDVQLYVKVEDEKDYGWGEALVAGSGIINSYLSIINDIAIPLLSRVELSEPIDVRTILEKILFSAGNCGVVSGAISAVEMALWSLKARKSNVELYKLIGDKIRDSVKVYASFPRFGKIDDVLIATRKSLERGFDLVKLHQSPSTVLAAVKAIRENYKEVKIAIDLNSPFDNLDVAKEFVDKVHKYEIEWIEEPLWPPNDYDLLSKLTEFSPIPIAAGENEYSLYGFKKLIESGITYLQPDIAKVGGVTKFLEILDLASKYKVRVLPHDRPDASPISLIYTLNIGLVKSQIEMVEYTIADFPNDLFYSLPKFKDGYISPPENLEVVERNIEKYSYKNRLRILHFSDLENKLMRKIT”: the “soluble on expression in E. coli” value is “not soluble”. To “MSPVEESPEEFLARFAAHRVEVRLYPEPWGSPLLEVQTPAGFVYAMDRGAPPAPVGEARVLFHGLARKVARAQGKEGVFREGAAYRLVGTARPLEKGFYLLLARGLPVVVHWEGPMPEEAEVLLWPPLMLFRE” belongs “soluble”; to “MKSFDGHNDLLARLWLSEHPDPVGMFLKGQLPGHLDFARCQQAQFAGGLFAIFVPPFDYVKNNHPYKLRKSAQAGFDTQDIHHIVFTQLDYIKQIASRSDRRIQICLSVEDIQFCLQQDIMAVVIHLEGAEVLDSEFGVLEQLHARGLRSIGPLWNLPNQFGHGLQASFPHSPDTGLGLTDQGKALIQLCSEKRIMIDVSHMNEKAFWDTAKISELPLIATHSNVHQLCPQPRNLTDAQLEAIQASQGCVGVNFDTAFLRPDGQRNAATSLDLILEHIEYLMHKLGEDQVAFGSDFDGGFISDHLKDVTGLIHLQQAFERRGYSQALQEKLCHQNWLSALQRVWHPAC”, “not soluble”. To “MFQFQFPLYNDIVEQARREAVEAGFEELRTPEDVDAAFRRPGTTLVLINSVCGCAGGIARPAAAHAVHYDKRPDHLVTVFAGQDKEATARAREYFVGEPPSSPSFALLKDGKLCAMLHRHDIEGHEPVAVVQKLQALFDEYCEEV” belongs “not soluble”; to “MPISEDLKQAIRQRARYICEYCHSPERLSANRFTIDHVIPKSLGGSDAFNNLALACRRCNERRYNFVASIDPQTKTIVAIFNPRQQNWAEHFIWTNRGIIIQGTTTTGRATCIRLDLNDTRYPEEDSIQETRRFWLKTGLHPPIDDPCKNLEHHHHHH”, “soluble”; to “MQEKPQEPKVVGVEILEKSGLDIKKLVDKLVKATAAEFTTYYYYTILRMHLTGMEGEGLKEIAEDARLEDRLHFELMTQRIYELGGGLPRDIRQLADISACSDAYLPENWKDPKEILKVLLEAEQCAIRTWKEVCDMTYGKDPRTYDLAQRILQEEIEHEAWFLELLYGRPSGHFRRSSPGNAPYSKK”, “soluble”.

These data come from the DeepSol protein solubility set.
